Results on one molecule are retold here after US20210063414A1, “METHODS FOR PREVENTING AND/OR TREATING BONE LOSS CONDITIONS BY MODULATING IRISIN” (Dana-Farber Cancer Institute, Inc., priority 2018, published 2021).

For experiment [1], the target named is T1, MLO-Y4 cell surface proteins (Mus musculus, UniProt P16460).
T1 construct: endogenous in cells; host or cells: MLO-Y4
T1 sequence (P16460 1-412): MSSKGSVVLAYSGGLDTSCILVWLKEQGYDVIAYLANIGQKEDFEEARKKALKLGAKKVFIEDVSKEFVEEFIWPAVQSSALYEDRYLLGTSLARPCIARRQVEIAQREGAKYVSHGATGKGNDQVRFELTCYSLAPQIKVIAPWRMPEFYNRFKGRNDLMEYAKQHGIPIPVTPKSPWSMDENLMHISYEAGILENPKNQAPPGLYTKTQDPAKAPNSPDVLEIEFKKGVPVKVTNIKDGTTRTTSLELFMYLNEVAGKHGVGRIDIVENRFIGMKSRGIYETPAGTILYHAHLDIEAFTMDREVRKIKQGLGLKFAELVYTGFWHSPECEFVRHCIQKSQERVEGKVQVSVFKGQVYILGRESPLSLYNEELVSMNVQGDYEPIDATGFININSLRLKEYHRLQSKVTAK
Put plainly: Crosslinking/co-immunoprecipitation/mass spectrometry (TMT quantitative proteomics) to identify irisin receptors. The experiment is classed as binding. The conditions noted are these: co-precipitated protein Ass1 (ASSY_MOUSE). In a few lines: (§1)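 Mouse MLO-Y4 cells were switched to serum-free FreeStyle medium for 4 h, chilled, then exposed to 10 nM His-tagged irisin (or adipsin as control) for 20 min. Cells were crosslinked with 1.5 mM DTSSP (30 min, ice), and bound proteins were pulled down on Ni-NTA and eluted with 250 mM imidazole. Eluates were separated by SDS-PAGE, trypsin-digested in gel, TMT 6-plex labelled and quantified by MS3-based LC-MS/MS on an Orbitrap Fusion Lumos.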

The target of experiment [2] is T2, MLO-Y4 cell surface proteins (Mus musculus, UniProt Q8K221).
T2 construct: endogenous in cells; host or cells: MLO-Y4
T2 sequence (Q8K221 1-341): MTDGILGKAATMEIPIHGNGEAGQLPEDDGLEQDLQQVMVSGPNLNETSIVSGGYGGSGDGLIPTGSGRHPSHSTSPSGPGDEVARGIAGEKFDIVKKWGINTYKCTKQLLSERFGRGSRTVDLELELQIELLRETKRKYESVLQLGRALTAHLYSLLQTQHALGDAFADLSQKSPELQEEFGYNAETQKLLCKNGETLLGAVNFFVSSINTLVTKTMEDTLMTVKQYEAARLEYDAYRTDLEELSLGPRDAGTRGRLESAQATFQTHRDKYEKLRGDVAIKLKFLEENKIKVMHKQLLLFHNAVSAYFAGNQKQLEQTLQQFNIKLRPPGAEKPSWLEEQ
Described as above. The experiment is classed as binding. To be noted: co-precipitated protein Arfip2 (ARFP2_MOUSE). A digest of the protocol: as §1

B1: irisin: secreted cleaved form of FNDC5; recombinant human/mouse irisin with C-terminal his tag produced in HEK293 cells (protein)
chain: DSPSAPVNVTVRHLKANSAVVSWDVLEDEVVIGFAISQQKKDVRMLRFIQEVNTTTRSCALWDLEEDTEYIVHVQAISIQGQSPASEPVLFKTPREAEKMASKNKDEVTMKE
modifications: left off: small tags and cut ends
notes: secreted cleaved form of FNDC5; recombinant human/mouse irisin with C-terminal his tag produced in HEK293 cells
Turning to B1, in experiment [1], the TMT signal-to-noise ratio is 3.2933 and the “irisin/adipsin TMT signal-to-noise ratio” value turned out to be 0.012. Also, in experiment [2], the TMT signal-to-noise ratio was determined as 377.903 and the “irisin/adipsin TMT signal-to-noise ratio” value stood at 0.346.
